In US12186374B2 (Sanofi-Aventis Deutschland GmbH, priority 2014, dated 2025):

Tests used:
[1] = tested on: patients with Type 2 diabetes mellitus (T2DM); experiment: Patients receiving rescue therapy (Example 2); type: in vivo, human
Text: Routing measurements and central lab alerts were set up to ensure that glycemic parameters remained under thresholds values predefined for rescue therapy. If values were above these thresholds, and no explanations were found, or appropriate actions failed, or a dose >60 U was necessary to decrease glycemic parameters below the threshold values, rescue therapy was to be introduced along with IMP and metformin (if taken). Newly initiated anti-diabetic medications, or an increase from baseline in background metformin dose were considered as rescue therapy.

patients with T2DM [2] = experiment: Average 7-point SMPG change from baseline to Week 30 (Example 3); type: in vivo, human; conditions: mITT population
Text: In yet another aspect of the present invention, the composition or combination as described herein can be used for improving average 7-point SMPG profile. Self-monitored plasma glucose (SMPG)”, as used herein, is in particular the “7-point Self Monitored Plasma Glucose”. “7-point Self Monitored Plasma Glucose” in particular refers to the measurement of plasma glucose seven times a day and calculation of the average plasma glucose concentration therefrom. The “7-point Self Monitored Plasma Glucose” value is in particular an average plasma glucose concentration including fasting and postprandial conditions. In particular, measurements of plasma glucose concentration are performed pre-breakfast, post-breakfast (e.g. 2-hour post-breakfast), pre-lunch, post-lunch (e.g. 2-hour post-lunch), pre-dinner, post-dinner (e.g. 2-hour post-dinner) and at bed-time. The treatment by the combination of the present invention, as described herein, can improve the self-monitored plasma glucose.
The 7-point SMPG profile should be measured at the following 7 points: pre-prandial and 2 hours postprandial for breakfast, lunch, dinner and at bedtime. Two hours postprandial (breakfast, lunch and dinner) is defined as 2 hours after the start of the meal.
The patients are requested to perform 7-point SMPG profile measurement over a single 24-hour period on 2 Different Days in the Week Before V6 (Week 0), V15 (Week 12), and V21 (week 30, end of treatment assessment visit). All SMPG values measured on these days will be recorded in diary and transferred into the e-CRF.
Similar MMRM method or analysis of covariance (ANCOVA) was applied on continuous secondary efficacy endpoints and the Cochran-Mantei-Haenszel method stratified by randomization strata was applied for categorical efficacy endpoints.

patients with T2DM [3] = tested on: patients with T2DM; design: species or system human; conditions: in vivo
Text: (§1) In case the investigator or the patient recognizes any signs of local intolerability at injection site this should be recorded on the standard AE page in the e-CRF. AEs related to local intolerability at the injection site will be identified by searching the term “injection site” in either the PTs coded from the investigator reported terms or the PTs coded from the ARAC diagnosis terms. The number (%) of patients with related events will be summarized by treatment group.

[4] = tested on: patients with Type 2 diabetes mellitus (T2DM); design: species or system human; conditions: in vivo
Text: as §1

patients with T2DM [5] = tested on: patients with T2DM; design: species or system human; conditions: in vivo; remark: listed apart in the source
Text: The mission of the ARAC will be to adjudicate, in a timely manner, all allergic, or possible allergic events.
In case a patient experiences an allergic reaction or an allergic-like reaction this has to be reported as an adverse event and recorded in the e-CRF on the specific AE form for suspected allergic event. Additional information is collected on specific allergic reaction complementary form. Allergic reaction or possible allergic reaction will be adjudicated by the ARAC (Section 5.4.2).
The number (%) of patients with events adjudicated as allergic reactions by ARAC and with events adjudicated by ARAC as possibly related to the IMP will be summarized by treatment group. All the allergic events reported by the investigators on the AE form for suspected allergic event and its associated complementary forms (confirmed or not confirmed by ARAC) will be listed.

patients with T2DM [6] = experiment: Patient disposition / treatment discontinuation (Example 3); type: in vivo; conditions: Randomized population; percentages of patients randomized
Text: The discrepancy between the strata assigned by IVRS/IWRS and the information reported on electronic Case Report Form (eCRF) will be listed for all randomized patients, • Patients who have completed the 30-week treatment period, • Patients who discontinued the IMP during the 30-week treatment period, and the reasons for treatment discontinuation.

[7] = tested on: patients with Type 2 diabetes mellitus (T2DM); experiment: Symptomatic hypoglycemia (Example 2)
[8] = tested on: patients with Type 2 diabetes mellitus (T2DM); experiment: Major cardiovascular events adjudicated by CAC (Example 2); conditions: on-treatment period
[9] = on-treatment period, Safety population

Gly(A21)-Arg(B31)-Arg(B32)-human insulin [Insulin Glargine]
Patients who received rescue therapy, % [1]: 3.4%
Patients who received rescue therapy, number [1]: 16 patients
Average of 7-point SMPG, change from baseline to Week 30, LS Mean (SE) (patients with T2DM [2]; MMRM): −0.60 (0.130) mmol/L
Average of 7-point SMPG at Week 30, Mean (SD) (patients with T2DM [2]): 8.62 (1.74) mmol/L
Average of 7-point SMPG at Week 30, Median (patients with T2DM [2]): 8.26 mmol/L
% of patients experiencing injection site reactions: Any injection site reactions (patients with T2DM [3]): 0.5%
% of patients experiencing injection site reactions: Injection site hypertrophy (patients with T2DM [3]): 0.3%
% of patients experiencing injection site reactions: Injection site reaction (patients with T2DM [3]): 0.3%
% of patients experiencing injection site reactions: PTs coded from the investigator reported terms (patients with T2DM [3]): 0.5%
Number of patients experiencing injection site reactions: Any injection site reactions (patients with T2DM [3]): 2
Number of patients experiencing injection site reactions: Injection site hypertrophy (patients with T2DM [3]): 1
Number of patients experiencing injection site reactions: Injection site reaction (patients with T2DM [3]): 1
Number of patients experiencing injection site reactions: PTs coded from the investigator reported terms (patients with T2DM [3]): 2
Patients who experienced injection site reactions (patients with T2DM [3]): 2 patients
Any injection site reactions [4]: 8 (1.7%) Number (%)
Injection site bruising [4]: 4 (0.9%) Number (%)
Injection site discomfort [4]: 0 Number (%)
Injection site erythema [4]: 0 Number (%)
Injection site haemorrhage [4]: 2 (0.4%) Number (%)
Injection site irritation [4]: 0 Number (%)
Injection site nodule [4]: 0 Number (%)
Injection site pain [4]: 2 (0.4%) Number (%)
Injection site papule [4]: 0 Number (%)
Injection site rash [4]: 0 Number (%)
Injection site reactions, % of patients [4]: 1.7%
Injection site reactions: PTs coded from the ARAC diagnosis terms [4]: 0 Number (%)
Injection site reactions: PTs coded from the investigator reported terms [4]: 8 (1.7%) Number (%)
Injection site swelling [4]: 1 (0.2%) Number (%)
Injection site warmth [4]: 1 (0.2%) Number (%)
% of patients with events adjudicated as allergic reaction by ARAC: Any category, Any event (patients with T2DM [5]): 0.3%
% of patients with events adjudicated as allergic reaction by ARAC: Not Related to IMP (patients with T2DM [5]): 0.3%
% of patients with events adjudicated as allergic reaction by ARAC: Other, Rhinitis allergic (patients with T2DM [5]): 0.3%
% of patients with events adjudicated as allergic reaction by ARAC: category Other (patients with T2DM [5]): 0.3%
Events adjudicated as allergic reaction by ARAC (patients with T2DM [5]): One
Number of patients with events adjudicated as allergic reaction by ARAC: Any category, Any event (patients with T2DM [5]): 1
Number of patients with events adjudicated as allergic reaction by ARAC: Not Related to IMP (patients with T2DM [5]): 1
Number of patients with events adjudicated as allergic reaction by ARAC: Other, Rhinitis allergic (patients with T2DM [5]): 1
Number of patients with events adjudicated as allergic reaction by ARAC: category Other (patients with T2DM [5]): 1
Reason for study treatment discontinuation: Adverse event (patients with T2DM [6]): 3 (0.8%)
Status at last study contact: Dead (patients with T2DM [6]): 2 (0.5%)
Documented (≤70 mg/dL) symptomatic hypoglycemia event rate per patient-year ([7]; Example 2): 1.22 per patient-year
Events of severe symptomatic hypoglycemia ([7]; Example 2): 1 event
Incidence of documented (≤70 mg/dL) symptomatic hypoglycemia ([7]; Example 2): 23.6%
Number of symptomatic hypoglycemia events ([7]; Example 2): 338 events
Patients reporting symptomatic hypoglycemia (protocol definition) ([7]; Example 2): 25.5%
Symptomatic hypoglycemia events per patient-year ([7]; Example 2): 1.29 events per patient-year
Documented symptomatic hypoglycemia (plasma glucose < 60 mg/dL [[…]]): Number of events [7, 9]: 75
Documented symptomatic hypoglycemia (plasma glucose < 60 mg/dL [[…]]): Number of events per patient year [7, 9]: 0.29 per patient year
Documented symptomatic hypoglycemia (plasma glucose < 60 mg/dL [[…]]): Number of patients with events [7, 9]: 50 (10.7%) n (%)
Documented symptomatic hypoglycemia (plasma glucose < 60 mg/dL [[…]]): Number of patients with events per patient year [7, 9]: 0.19 per patient year
Documented symptomatic hypoglycemia (plasma glucose ≤ 70 mg/dL [[…]]): Number of events [7, 9]: 321
Documented symptomatic hypoglycemia (plasma glucose ≤ 70 mg/dL [[…]]): Number of events per patient year [7, 9]: 1.22 per patient year
Documented symptomatic hypoglycemia (plasma glucose ≤ 70 mg/dL [[…]]): Number of patients with events [7, 9]: 110 (23.6%) n (%)
Documented symptomatic hypoglycemia (plasma glucose ≤ 70 mg/dL [[…]]): Number of patients with events per patient year [7, 9]: 0.42 per patient year
Probable symptomatic hypoglycemia: Number of events [7, 9]: 16
Probable symptomatic hypoglycemia: Number of events per patient year [7, 9]: 0.06 per patient year
Probable symptomatic hypoglycemia: Number of patients with events [7, 9]: 12 (2.6%) n (%)
Probable symptomatic hypoglycemia: Number of patients with events per patient year [7, 9]: 0.05 per patient year
Severe symptomatic hypoglycemia: Number of events [7, 9]: 1
Severe symptomatic hypoglycemia: Number of events per patient year [7, 9]: <0.01 per patient year
Severe symptomatic hypoglycemia: Number of patients with events [7, 9]: 1 (0.2%) n (%)
Severe symptomatic hypoglycemia: Number of patients with events per patient year [7, 9]: <0.01 per patient year
Symptomatic hypoglycemia: Number of events [7, 9]: 338
Symptomatic hypoglycemia: Number of events per patient year [7, 9]: 1.29 per patient year
Symptomatic hypoglycemia: Number of patients with events [7, 9]: 119 (25.5%) n (%)
Symptomatic hypoglycemia: Number of patients with events per patient year [7, 9]: 0.45 per patient year
TEAEs adjudicated as major cardiovascular events by CAC, % of patients ([8]; Example 2): 1.5%
TEAEs adjudicated as major cardiovascular events by CAC, number of patients ([8]; Example 2): 7 patients
Major cardiovascular events by CAC: Cardiovascular death ([8]; Safety population): 2 (0.4%) n(%)
Major cardiovascular events by CAC: Coronary revascularization procedure ([8]; Safety population): 1 (0.2%) n(%)
Major cardiovascular events by CAC: Hospitalization for heart failure ([8]; Safety population): 2 (0.4%) n(%)
Major cardiovascular events by CAC: Hospitalization for unstable angina ([8]; Safety population): 1 (0.2%) n(%)
Major cardiovascular events by CAC: Non-fatal myocardial infarction ([8]; Safety population): 0 n(%)
Major cardiovascular events by CAC: Non-fatal stroke ([8]; Safety population): 1 (0.2%) n(%)
Patients with events adjudicated as major cardiovascular events by CAC: Any ([8]; Safety population): 7 (1.5%) n(%)
